We go through 1 protein from US20190119406.

The target of this data set is T1, Mutant OB chain (short chain, hinge-CH2-CH3 with T394D, P395D, P396D) [IgG part: P01857].
T1 chain: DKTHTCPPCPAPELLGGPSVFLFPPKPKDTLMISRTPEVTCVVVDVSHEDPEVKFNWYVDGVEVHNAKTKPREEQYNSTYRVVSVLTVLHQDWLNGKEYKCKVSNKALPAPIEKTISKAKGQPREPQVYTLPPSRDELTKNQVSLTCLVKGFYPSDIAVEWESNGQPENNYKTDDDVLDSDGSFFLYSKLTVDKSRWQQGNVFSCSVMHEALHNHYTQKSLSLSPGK
As to the kind of experiment: co-transfection of OA and OB in HEK293, protein A bead pull-down, SDS-PAGE (FIGS. 3, 4 and 6).

B1: Mutant OA chain (long chain, CH1-hinge-CH2-CH3 with P395K, P396K, V397K) (protein)
chain: ASTKGPSVFPLAPSSKSTSGGTAALGCLVKDYFPEPVTVSWNSGALTSGVHTFPAVLQSSGLYSLSSVVTVPSSSLGTQTYICNVNHKPSNTKVDKKVEPKSCDKTHTCPPCPAPELLGGPSVFLFPPKPKDTLMISRTPEVTCVVVDVSHEDPEVKFNWYVDGVEVHNAKTKPREEQYNSTYRVVSVLTVLHQDWLNGKEYKCKVSNKALPAPIEKTISKAKGQPREPQVYTLPPSRDELTKNQVSLTCLVKGFYPSDIAVEWESNGQPENNYKTTKKKLDSDGSFFLYSKLTVDKSRWQQGNVFSCSVMHEALHNHYTQKSLSLSPGK
Turning to B1, the yield of heterodimer result is listed as “high yield of heterodimer (above 95%)”.
